Series [1] has as its system HeLa Kyoto. Nature of the series: solubility change mitosis vs G1/S (difference of NP-40 vs SDS log2 ratios) (log2 ratio difference); higher = more soluble in mitosis.
Series [2] has as its system HeLa Kyoto. Nature of the series: thermal stability score vs G1/S (z-score of summed log2 fold changes over temperatures); higher = more thermally stable than in G1/S.
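For solubility change mitosis vs G1/S (difference of NP-40 vs SDS log2 ratios) in this document: synchronized HeLa Kyoto cells (double thymidine block for G1/S, nocodazole release for mitosis), protein amounts in NP-40 versus SDS lysates quantified by mass spectrometry, three biological replicates.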
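For thermal stability score vs G1/S (z-score of summed log2 fold changes over temperatures) in this document: synchronized HeLa Kyoto cells, proteins quantified by TMT10plex mass spectrometry, three biological replicates, mitosis taken 0.5 h after nocodazole release, G1/S directly after double thymidine block.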

For the substance MRPL48, the “solubility change mitosis (log2)” value in the series on HeLa Kyoto [1] is -0.0228. Same read-out and setting: the result for MRPL51 reads -0.136; that for MRPL54, 0.343. The same measure, in the same setting: the result for MRPS7 reads -0.0353; that for MRPS15, 0.176; that for MRPS16, -0.0244. MRPS27: the “solubility change mitosis (log2)” value in the series with HeLa Kyoto [1] was -0.149. The same measure, in the same setting: the result for MRPS34 reads 0.0157. Take MTMR1: in the series on HeLa Kyoto [1], the “solubility change mitosis (log2)” value came to 0.0778.

In the case of MTOR, the “solubility change mitosis (log2)” value in the series on HeLa Kyoto [1] was -0.154. Consider “MWSAGRGGAAWPVLLGLLLALLVPGGGAAKTGAELVTCGSVLKLLNTHHRVRLHSHDIKYGSGSGQQSVTGVEASDDANSYWRIRGGSEGGCPRGSPVRCGQAVRLTHVLTGKNLHTHHFPSPLSNNQEVSAFGEDGEGDDLDLWTVRCSGQHWEREAAVRFQHVGTSVFLSVTGEQYGSPIRGQHEVHGMPSANTHNTWKAMEGIFIKPSVEPSAGHDEL [SDF2L1]”, for which the thermal stability score in the series with HeLa Kyoto [2] (cell cycle stage: early G1 (4.5 h after nocodazole release)) is 4.06; with HeLa Kyoto [2] (cell cycle stage: mitosis) it was 1.19. The “solubility change mitosis (log2)” value with HeLa Kyoto [1] was -0.0974.

On to NCAPG, for which the “solubility change mitosis (log2)” value with HeLa Kyoto [1] was -0.0373. Consider NDUFB10, for which, in the series on HeLa Kyoto [1], the “solubility change mitosis (log2)” value is 0.185. Still for that read-out and setting: in the case of NEGR1 it was -0.204.

Consider NOC2L, for which, in the series on HeLa Kyoto [1], the “solubility change mitosis (log2)” value turned out to be 0.667. With NUDT5, the “solubility change mitosis (log2)” value with HeLa Kyoto [1] is 0.0137. Consider OLR1, for which the “solubility change mitosis (log2)” value in the series on HeLa Kyoto [1] stood at 0.51.

Turning to OXA1L, the “solubility change mitosis (log2)” value in the series on HeLa Kyoto [1] was -0.112. Still for that read-out and setting: in the case of PHLDA3 it was 0.0241; in that of POLR2A, 0.228; in that of POLR2C, 0.102. Consider POLR2K, for which the “solubility change mitosis (log2)” value in the series with HeLa Kyoto [1] is 0.187.

For the substance PRKACA, in the series with HeLa Kyoto [1], the “solubility change mitosis (log2)” value is -0.0702. The same measure, in the same setting: the result for RAN reads 0.0277; that for RBM8A, 0.468. With RBX1, the “solubility change mitosis (log2)” value in the series with HeLa Kyoto [1] was -0.338. For RPL6, the “solubility change mitosis (log2)” value with HeLa Kyoto [1] stood at 0.908. For RPL7, the “solubility change mitosis (log2)” value in the series with HeLa Kyoto [1] is 0.696. In the case of RPL11, the “solubility change mitosis (log2)” value in the series on HeLa Kyoto [1] stood at 0.596. For RPL15, the “solubility change mitosis (log2)” value in the series with HeLa Kyoto [1] was 0.657. The same measure, in the same setting: the result for RPL23A reads 0.826; that for RPL24, 0.971; that for RPL27A, 1.02. For RPL31, in the series on HeLa Kyoto [1], the “solubility change mitosis (log2)” value was 0.763.

In the case of RPL34, the “solubility change mitosis (log2)” value in the series on HeLa Kyoto [1] worked out at 0.894. With RPL36, the “solubility change mitosis (log2)” value in the series on HeLa Kyoto [1] was determined as 0.849. Still for that read-out and setting: the result for RPL36A reads 0.902; that for RPL38, 0.638. Still for that read-out and setting: in the case of RPS3 it was 0.437; in that of RPS6, 0.803.

For RPS11, the “solubility change mitosis (log2)” value with HeLa Kyoto [1] is 0.597. In the case of RPS12, in the series with HeLa Kyoto [1], the “solubility change mitosis (log2)” value was 0.588.

For RPS14, the “solubility change mitosis (log2)” value in the series on HeLa Kyoto [1] is 0.203. The same measure, in the same setting: the result for RPS27A reads 0.852; that for RSL1D1, 1.5; that for SETDB1, -0.0625. Same read-out and setting: the result for SNRPN reads 0.368; that for SUB1, 0.154; that for TCEA1, -0.0112.

As to TOLLIP, the “solubility change mitosis (log2)” value in the series with HeLa Kyoto [1] was found to be 0.0779. Still for that read-out and setting: in the case of TRIM16 it was -0.177.
